Several values for one entry are separate records, joined by “and”; a condition that tells them apart may be missing. Identical values can stand only once. Bounds are passed on as bounds.

T1: B7H3 on B7H3-positive human tumour cells (A498, MCF-7, Caki-2, 786-0) (human, UniProt Q5ZPR3 29-534)
T1 sequence (looked up): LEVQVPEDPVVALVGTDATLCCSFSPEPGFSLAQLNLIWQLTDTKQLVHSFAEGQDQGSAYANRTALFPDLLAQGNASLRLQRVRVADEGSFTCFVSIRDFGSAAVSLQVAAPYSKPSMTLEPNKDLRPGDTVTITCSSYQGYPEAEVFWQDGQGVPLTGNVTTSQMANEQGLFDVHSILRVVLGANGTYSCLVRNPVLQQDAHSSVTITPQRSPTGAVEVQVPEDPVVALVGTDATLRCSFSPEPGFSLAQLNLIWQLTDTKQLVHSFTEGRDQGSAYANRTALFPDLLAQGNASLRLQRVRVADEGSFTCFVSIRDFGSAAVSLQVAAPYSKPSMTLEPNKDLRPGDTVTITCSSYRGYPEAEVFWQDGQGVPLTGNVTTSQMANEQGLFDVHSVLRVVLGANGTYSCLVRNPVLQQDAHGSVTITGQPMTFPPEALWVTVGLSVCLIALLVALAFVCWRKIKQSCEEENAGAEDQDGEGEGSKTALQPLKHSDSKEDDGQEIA

B1: Example 257L2: anti-B7H3 AK1B (TPP-5706) coupled with Intermediate F257 (antibody, human IgG1, kappa, V domains shown)
VH: QVQLQQPGAELVKPGASVKMSCKASGYTFTIYNVHWIKQTPGQGLEWMGTIFPGNGDTSYNQKFKDKATLTTDKSSKTAYMQLNSLTSEDSAVYYCARWDDGNVGFAHWGQGTLVTVSA
VL: DIQMTQSPASLSASVGETVTITCRASENINNYLTWFQQKQGKSPQLLVYHAKTLAEGVPSRFSGSGSGTQFSLKINSLQPEDFGSYYCQHHYGTPPTFGGGTKLEIKR
modifications: KSP inhibitor-linker (Intermediate F257) on cysteine residues of the partially reduced antibody, sites not given; drug/mAb ratio 4.5
B2: Example 208L2: anti-B7H3 AK1B (TPP-5706) coupled with Intermediate F104 (stirred at pH 8 overnight) (antibody, human IgG1, kappa, V domains shown)
VH: B1 VH
VL: B1 VL
modifications: KSP inhibitor-linker (Intermediate F104) on cysteine residues of the partially reduced antibody, sites not given; drug/mAb ratio 2.9
B3: Example 281L2: anti-B7H3 AK1B (TPP-5706) coupled with Intermediate F281 (antibody, human IgG1, kappa, V domains shown)
VH: B1 VH
VL: B1 VL
modifications: KSP inhibitor-linker (Intermediate F281) on cysteine residues of the partially reduced antibody, sites not given; drug/mAb ratio 2.4
B4: Example 240L2: anti-B7H3 AK1B (TPP-5706) coupled with Intermediate F240 (antibody, human IgG1, kappa, V domains shown)
VH: B1 VH
VL: B1 VL
modifications: KSP inhibitor-linker (Intermediate F240) on cysteine residues of the partially reduced antibody, sites not given; drug/mAb ratio 3.5
B5: Example 297L2 (Isomer 1): anti-B7H3 AK1B (TPP-5706) coupled with Intermediate F297 (antibody, human IgG1, kappa, V domains shown)
VH: B1 VH
VL: B1 VL
modifications: KSP inhibitor-linker (Intermediate F297) on cysteine residues of the partially reduced antibody, sites not given; drug/mAb ratio 3.1
B6: Example 296L2: anti-B7H3 AK1B (TPP-5706) coupled with Intermediate F296 (antibody, human IgG1, kappa, V domains shown)
VH: B1 VH
VL: B1 VL
modifications: KSP inhibitor-linker (Intermediate F296) on cysteine residues of the partially reduced antibody, sites not given; drug/mAb ratio 3.2
B7: Example 275L2: anti-B7H3 AK1B (TPP-5706) coupled with Intermediate F275 (antibody, human IgG1, kappa, V domains shown)
VH: B1 VH
VL: B1 VL
modifications: KSP inhibitor-linker (Intermediate F275) on cysteine residues of the partially reduced antibody, sites not given; drug/mAb ratio 3.8
B8: Example 194L2: anti-B7H3 AK1B (TPP-5706) coupled with Intermediate F194 (antibody, human IgG1, kappa, V domains shown)
VH: B1 VH
VL: B1 VL
modifications: KSP inhibitor-linker (Intermediate F194) on lysine residues, sites not given; drug/mAb ratio 2.9
B9: Example 284L2: anti-B7H3 AK1B (TPP-5706) coupled with Intermediate F284 (antibody, human IgG1, kappa, V domains shown)
VH: B1 VH
VL: B1 VL
modifications: KSP inhibitor-linker (Intermediate F284) on cysteine residues of the partially reduced antibody, sites not given; drug/mAb ratio 3.0
B10: Example 173L1: anti-B7H3 AK1A (TPP-3803) coupled with Intermediate F173 (antibody, human IgG1, kappa, V domains shown)
VH: QVKLQQSGAELVKPGASVKLSCKASGYTFTNYDINWVRQRPEQGLEWIGWIFPGDGSTQYNEKFKGKATLTTDTSSSTAYMQLSRLTSEDSAVYFCARQTTATWFAYWGQGTTVTVSS
VL: DIELTQSPTTLSVTPGDRVSLSCRASQSISDYLHWYQQKSHESPRLLIKYASQSISGIPSRFSGSGSGSDFTLSINSVEPEDVGVYYCQNGHSFPLTFGAGTKLELKR
modifications: KSP inhibitor-linker (Intermediate F173) on cysteine residues of the partially reduced antibody, sites not given; drug/mAb ratio 3.4
B11: Example 240L1: anti-B7H3 AK1A (TPP-3803) coupled with Intermediate F240 (antibody, human IgG1, kappa, V domains shown)
VH: B10 VH
VL: B10 VL
modifications: KSP inhibitor-linker (Intermediate F240) on cysteine residues of the partially reduced antibody, sites not given; drug/mAb ratio 2.7
B12: Example 257L1: anti-B7H3 AK1A (TPP-3803) coupled with Intermediate F257 (antibody, human IgG1, kappa, V domains shown)
VH: B10 VH
VL: B10 VL
modifications: KSP inhibitor-linker (Intermediate F257) on cysteine residues of the partially reduced antibody, sites not given; drug/mAb ratio 2.4
B13: Example 259L1: anti-B7H3 AK1A (TPP-3803) coupled with Intermediate F259 (antibody, human IgG1, kappa, V domains shown)
VH: B10 VH
VL: B10 VL
modifications: KSP inhibitor-linker (Intermediate F259) on cysteine residues of the partially reduced antibody, sites not given; drug/mAb ratio 3.0
B14: Example 194: anti-B7H3 AK1A (TPP-3803) coupled with Intermediate F194 (antibody, human IgG1, kappa, V domains shown)
VH: B10 VH
VL: B10 VL
modifications: KSP inhibitor-linker (Intermediate F194) on lysine residues, sites not given; drug/mAb ratio 2.4
B15: Example 297L1 (Isomer 1): anti-B7H3 AK1A (TPP-3803) coupled with Intermediate F297 (antibody, human IgG1, kappa, V domains shown)
VH: B10 VH
VL: B10 VL
modifications: KSP inhibitor-linker (Intermediate F297) on cysteine residues of the partially reduced antibody, sites not given; drug/mAb ratio 2.4
B16: Example 274L1: anti-B7H3 AK1A (TPP-3803) coupled with Intermediate F274 (antibody, human IgG1, kappa, V domains shown)
VH: B10 VH
VL: B10 VL
modifications: KSP inhibitor-linker (Intermediate F274) on cysteine residues of the partially reduced antibody, sites not given; drug/mAb ratio 2.9
B17: Example 270L1: anti-B7H3 AK1A (TPP-3803) coupled with Intermediate F270 (antibody, human IgG1, kappa, V domains shown)
VH: B10 VH
VL: B10 VL
modifications: KSP inhibitor-linker (Intermediate F270) on cysteine residues of the partially reduced antibody, sites not given; drug/mAb ratio 2.8

One assay addresses T1, B7H3 on B7H3-positive human tumour …. Put plainly: cell-based or functional assay.
Settings: not given
On to B1, for which the “IC50 [M] CTG, A498 cells (B7H3-positive)” value was 1.16e-10 M and 1.37e-10 M; the “IC50 [M] CTG, Caki-2 cells (B7H3-positive)” value (“IC50 [M] CTG, Caki-2 cells” below) was 1.5e-11 M and < 3e-11 M; the “IC50 [M] CTG, MCF-7 cells (B7H3-positive)” value (“IC50 [M] CTG, MCF-7 cells” below) is 7.37e-11 M and 8.63e-11 M.
For B2, the “IC50 [M] CTG, Caki-2 cells” value worked out at 5.99e-09 M and the “IC50 [M] CTG, MCF-7 cells” value was determined as 2.42e-10 M.
B3: the “IC50 [M] CTG, A498 cells (B7H3-positive)” value came out at 1.39e-08 M; the “IC50 [M] CTG, Caki-2 cells” value turned out to be 5.26e-09 M; the “IC50 [M] CTG, MCF-7 cells” value amounted to 3.42e-08 M.
The like results for B4 were, in that order, 7.49e-10 M, more than 3e-07 M and 1.58e-10 M.
The like results for B5 were, in that order, more than 3e-07 M, more than 3e-07 M and 7.56e-10 M.
The like results for B6 were, in that order, 6.22e-10 M, more than 3e-07 M and 1.63e-10 M.
For B7, the “IC50 [M] CTG, A498 cells (B7H3-positive)” value was more than 3e-07 M; the “IC50 [M] CTG, Caki-2 cells” value is more than 3e-07 M; the “IC50 [M] CTG, MCF-7 cells” value was determined as 9.15e-11 M.
Take B8: the “IC50 [M] CTG, A498 cells (B7H3-positive)” value was 3.57e-10 M; the “IC50 [M] CTG, Caki-2 cells” value stood at 2.75e-10 M; the “IC50 [M] CTG, MCF-7 cells” value was determined as 2.08e-10 M.
With B9, the “IC50 [M] CTG, MCF-7 cells” value is 7.02e-10 M.
As to B10, the “IC50 [M] CTG, A498 cells (B7H3-positive)” value is 6e-07 M and the “IC50 [M] CTG, MCF-7 cells” value stood at 4.98e-09 M.
The like results for B11 were, in that order, 2.35e-09 M and 7.25e-10 M.
Take B12: the “IC50 [M] CTG, MCF-7 cells” value is 4.49e-10 M.
Same read-out and setting: under B13 stands 4.57e-09 M; under B14, 6.43e-10 M.
Same read-out and setting: under B15 stands 8.93e-09 M; under B16, 1.86e-09 M.
Take B17: the “IC50 [M] CTG, A498 cells (B7H3-positive)” value came out at 6e-07 M and the “IC50 [M] CTG, MCF-7 cells” value came to 7e-08 M.

For the next assay, the system named is KPL4. Put plainly: MTT assay, cytotoxicity of metabolites, KPL4. The settings on record: KPL4, 96 h, 96 h incubation. Type of assay: cell-based. The protocol: The cells were cultivated according to the standard method using the growth media listed under C-1. The test is carried out by detaching the cells with a solution of Accutase in PBS (Biochrom AG #L2143), pelleting, resuspending in culture medium, counting and sowing into a 96-well culture plate with white bottom (Costar #3610) (NCI H292: 2500 cells/well in a total volume of 100 μl). The cells were then incubated in an incubator at 37° C. and 5% carbon dioxide. After 48 h, the medium was replaced. The metabolites in 10 μl of culture medium in concentrations from 10^−5M to 10^−13M were then pipetted to the cells (in triplicate), and the assay was then incubated in an incubator at 37° C. and 5% carbon dioxide. […] To this end, the MTT reagent was incubated with the cells for 4 h, followed by lysis of the cells overnight by addition of the detergent. The dye formed was detected at 570 nm (Infinite M1000 pro, Tecan). The measured data were used to calculate the IC50 of the growth inhibition using the DRC (dose response curve). The proliferation of cells which were not treated with test substance but were otherwise identically treated was defined as the 100% figure.
For orientation: Formazan colour is commonly taken as a measure of viable cells.
For `CC(C)(C)[C@H](c1cc(-c2cc(F)ccc2F)cn1Cc1ccccc1)N(CC[C@H](N)C(=O)NCCNC(=O)CNC(=O)CC(SC[C@H](N)C(=O)O)C(=O)O)C(=O)CO` (single isomer, unassigned) [Example M14], the IC50 came to 182000 pM.
Still for that read-out and setting: under `CC(C)(C)[C@H](c1cc(-c2cc(F)ccc2F)cn1Cc1ccccc1)N(CC[C@H](N)C(=O)NCCOCCN1C(=O)CC(SC[C@H](N)C(=O)O)C1=O)C(=O)CO` (stereo partly drawn) [Example M4, S-(1-{2-[2-({(2S)-2-Amino-4-[{(1R)-1-[1-benzyl-4-(2,5-difluorophenyl)-1H-pyrrol-2-yl]-2,2-dimethylpropyl}(glycoloyl)amino]butanoyl}amino)ethoxy]ethyl}-2,5-dioxopyrrolidin-3-yl)-L-cysteine/trifluoroacetic acid (1:1)] stands 176000 pM; under `CC(C)(C)[C@H](c1cc(-c2cc(F)ccc2F)cn1Cc1ccccc1)N(CC[C@H](N)C(=O)NCCNC(=O)CSC[C@H](N)C(=O)O)C(=O)CO` [Example M7, S-(2-{[2-({(2S)-2-Amino-4-[{(1R)-1-[1-benzyl-4-(2,5-difluorophenyl)-1H-pyrrol-2-yl]-2,2-dimethylpropyl}(glycoloyl)amino]butanoyl}amino)ethyl]amino}-2-oxoethyl)-L-cysteine/trifluoroacetic acid (1:1)], 92500 pM.
On the same count and under the same terms, the figure for `CC(C)(C)[C@H](c1cc(-c2cc(F)ccc2F)cn1Cc1ccccc1)N(CC[C@H](N)C(=O)NCCNC(=O)CNC(=O)CC(SC[C@H](N)C(=O)O)C(=O)O)C(=O)CO` (stereo partly drawn) [Example M13, 4-[(2-{[2-({(2S)-2-Amino-4-[{(1R)-1-[1-benzyl-4-(2,5-difluorophenyl)-1H-pyrrol-2-yl]-2,2-dimethylpropyl}(glycoloyl)amino]butanoyl}amino)ethyl]amino}-2-oxoethyl)amino]-2-{[(2R)-2-amino-2-carboxyethyl]sulphanyl}-4-oxobutanoic acid/trifluoroacetic acid (1:1)] is 169000 pM.

In general, IC50 refers to the midpoint of a concentration-inhibition curve.

Values taken from US20180185510A1, “ANTIBODY DRUG CONJUGATES OF KINESIN SPINDEL PROTEIN (KSP) INHIBITORS WITH ANTI-B7H3-ANTIBODIES” (BAYER PHARMA AKTIENGESELLSCHAFT, priority 2015, published 2018).
